Data from EP1746107B1.
Where two headings read alike, the source gives them in different places.

Legend:
[1] = target: human C1q (Quidel, San Diego, CA) (human) (UniProt P02745); assay: C1q binding ELISA (antibody coated, 2 µg/ml C1q added)
[2] = target: CD20 antigen on WIL2-S cells (UniProt P11836); assay: flow cytometry on WIL2-S cells expressing CD20
[3] = target: FcγRI α subunit-GST fusion (UniProt P12314); assay: ELISA on coated FcγRI α subunit-GST, monomeric IgG at 10 µg/ml
[4] = target: FcγRIIa α subunit ECD-6His-GST fusion protein (UniProt P12318); assay: ELISA on coated receptor ECD-6His-GST, E27:chimeric IgE:VEGF immune complex
[5] = target: FcγRIIb α subunit ECD-6His-GST fusion protein (UniProt P31994); assay: as above
[6] = target: FcγRIIIa α subunit ECD-6His-GST fusion protein (UniProt P08637); assay: as above
[7] = target: human C1q (Quidel, San Diego, CA) (human) (UniProt P02745); assay: C1q binding ELISA (antibody coated, 2 µg/ml C1q added); remark: listed apart in the source
[8] = target: human C1q (Quidel, San Diego, CA) (human) (UniProt P02745); assay: cell-based or functional assay
[9] = target: human C1q (Quidel, San Diego, CA) (human) (UniProt P02745); assay: C1q binding ELISA (antibody coated up to 100 µg/ml, 2 µg/ml C1q added)

Chain of human C1q (Quidel, San Diego, CA) (human) (P02745 23-245 limits assumed, chain 1 of 3): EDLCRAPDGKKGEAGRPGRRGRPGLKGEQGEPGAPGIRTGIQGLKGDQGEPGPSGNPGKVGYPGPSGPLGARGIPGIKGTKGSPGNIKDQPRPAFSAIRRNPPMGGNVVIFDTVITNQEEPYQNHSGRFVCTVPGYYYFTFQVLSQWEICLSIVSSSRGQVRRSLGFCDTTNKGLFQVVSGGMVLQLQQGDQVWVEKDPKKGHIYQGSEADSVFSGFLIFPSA
Chain of human C1q (Quidel, San Diego, CA) (human) (P02746 28-253 limits assumed, chain 2 of 3, further chain): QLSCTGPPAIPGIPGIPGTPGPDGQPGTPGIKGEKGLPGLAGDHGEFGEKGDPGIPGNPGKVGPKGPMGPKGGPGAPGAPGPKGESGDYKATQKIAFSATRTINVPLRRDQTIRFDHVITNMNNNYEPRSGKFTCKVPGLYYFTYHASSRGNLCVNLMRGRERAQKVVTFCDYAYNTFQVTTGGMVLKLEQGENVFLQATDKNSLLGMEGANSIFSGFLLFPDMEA
Chain of human C1q (Quidel, San Diego, CA) (human) (P02747 29-245 limits assumed, chain 3 of 3, further chain): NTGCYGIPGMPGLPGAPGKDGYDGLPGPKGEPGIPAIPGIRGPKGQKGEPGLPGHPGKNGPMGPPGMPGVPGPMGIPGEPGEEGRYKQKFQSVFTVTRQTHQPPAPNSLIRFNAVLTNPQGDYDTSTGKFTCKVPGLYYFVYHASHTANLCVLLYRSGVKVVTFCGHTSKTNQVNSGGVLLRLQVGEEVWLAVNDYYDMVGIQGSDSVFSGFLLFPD
Chain of FcγRIIIa α subunit ECD-6His-GST fusion protein (P08637 17-208): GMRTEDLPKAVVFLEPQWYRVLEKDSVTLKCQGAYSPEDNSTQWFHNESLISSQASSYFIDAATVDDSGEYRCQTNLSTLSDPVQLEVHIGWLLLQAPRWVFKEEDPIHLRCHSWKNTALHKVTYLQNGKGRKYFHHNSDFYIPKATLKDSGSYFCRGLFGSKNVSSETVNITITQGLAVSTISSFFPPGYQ
Chain of FcγRIIa α subunit ECD-6His-GST fusion protein (P12318 34-217): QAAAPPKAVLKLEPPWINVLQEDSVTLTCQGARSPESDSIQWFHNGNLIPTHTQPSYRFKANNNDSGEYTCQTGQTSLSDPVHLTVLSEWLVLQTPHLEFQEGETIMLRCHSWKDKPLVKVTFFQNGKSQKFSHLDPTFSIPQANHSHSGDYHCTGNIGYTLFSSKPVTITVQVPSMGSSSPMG
Chain of FcγRIIb α subunit ECD-6His-GST fusion protein (P31994 43-217): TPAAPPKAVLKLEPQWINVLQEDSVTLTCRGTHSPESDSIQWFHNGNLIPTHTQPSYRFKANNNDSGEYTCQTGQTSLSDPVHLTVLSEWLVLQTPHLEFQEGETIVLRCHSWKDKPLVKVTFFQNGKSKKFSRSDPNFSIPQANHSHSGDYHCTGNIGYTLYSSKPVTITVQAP
Chain of CD20 antigen on WIL2-S cells (P11836 whole entry, the tested form may be a part): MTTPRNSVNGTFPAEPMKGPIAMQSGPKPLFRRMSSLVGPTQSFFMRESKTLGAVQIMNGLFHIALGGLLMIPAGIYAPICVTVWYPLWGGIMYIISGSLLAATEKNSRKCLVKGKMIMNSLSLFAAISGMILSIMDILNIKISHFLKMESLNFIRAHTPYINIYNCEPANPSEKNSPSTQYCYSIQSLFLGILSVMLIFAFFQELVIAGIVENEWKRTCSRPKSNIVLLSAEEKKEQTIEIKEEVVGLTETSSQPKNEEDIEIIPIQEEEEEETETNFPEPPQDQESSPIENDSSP
Chain of FcγRI α subunit-GST fusion (P12314 16-292): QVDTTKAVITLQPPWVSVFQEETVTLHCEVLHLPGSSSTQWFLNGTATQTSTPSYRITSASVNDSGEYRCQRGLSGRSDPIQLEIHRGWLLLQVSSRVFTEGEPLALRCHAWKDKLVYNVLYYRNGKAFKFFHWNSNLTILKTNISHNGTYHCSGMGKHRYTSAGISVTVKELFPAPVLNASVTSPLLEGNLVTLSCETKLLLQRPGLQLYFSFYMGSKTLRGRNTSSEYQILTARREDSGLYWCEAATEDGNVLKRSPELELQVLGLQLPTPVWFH

Substance: C2B8 mutant E333V (antibody)
- EC50 [1]: 1.18 µg/mL

Substance: C2B8 mutant P329A (antibody)
- CD20 binding (EC50), percentage of the wild type (% of wild type) [2]: 112

Substance: C2B8 mutant E333G (antibody)
- EC50 [1]: 1.14 µg/mL

Substance: C2B8 mutant with A327 of the human IgG1 constant region changed to glycine (antibody)
- increase in C1q binding [1]: 50%

Substance: E27 anti-IgE antibody mutant E318A
- binding, percentage of the wild type (% of wild type) [3]: 93
- binding, percentage of the wild type (% of wild type) [4]: 113
- binding, percentage of the wild type (% of wild type) [5]: 106
- binding, percentage of the wild type (% of wild type) [6]: 104

Substance: E27 anti-IgE antibody mutant P331A
- binding, percentage of the wild type (% of wild type) [3]: 74
- binding, percentage of the wild type (% of wild type) [4]: 86
- binding, percentage of the wild type (% of wild type) [5]: 58
- binding, percentage of the wild type (% of wild type) [6]: 73

Substance: C2B8 mutant K326A (antibody)
- EC50 [1]: 1.03 µg/mL
- increase in binding to C1q [1]: 30%

Substance: E27 anti-IgE antibody mutant K320A
- binding, percentage of the wild type (% of wild type) [3]: 102
- binding, percentage of the wild type (% of wild type) [5]: 83
- binding, percentage of the wild type (% of wild type) [6]: 72

Substance: C2B8 mutant K326W (antibody)
- fold increase in binding to C1q compared to wild type [7]: 2 fold
- EC50 [1]: 0.47 µg/mL
- fold increase in binding to C1q compared to wild type [1]: 5 fold

Substance: C2B8 double mutant K326A-E333A (antibody)
- CDC compared to wild type C2B8 [8]: 2 fold
- fold better at binding human C1q than wild type C2B8 [1]: 3 fold

Substance: C2B8 mutant E333Q (antibody)
- EC50 [1]: 1.52 µg/mL

Substance: C2B8 mutant K326E (antibody)
- fold increase in binding to C1q compared to wild type [7]: 2 fold
- EC50 [1]: 1.08 µg/mL

Substance: C2B8 mutant E333D (antibody)
- EC50 [1]: 1.22 µg/mL

Substance: E27 anti-IgE antibody mutant K322A
- binding, percentage of the wild type (% of wild type) [4]: 109
- binding, percentage of the wild type (% of wild type) [5]: 101

Substance: C2B8 mutant K334A (antibody)
- EC50 [1]: 1.07 µg/mL

Substance: C2B8 mutant K326V (antibody)
- EC50 [1]: 1.3 µg/mL

Substance: C2B8 double mutant K326W-E333S (antibody)
- CDC compared to wild type C2B8 [8]: 3 fold

Substance: C2B8 double mutant K326M-E333S (antibody)
- CDC compared to wild type C2B8 [8]: 2 fold
- fold better at binding human C1q than wild type C2B8 [1]: 3 fold

Substance: C2B8 mutant K326G (antibody)
- EC50 [1]: 0.95 µg/mL

Substance: C2B8 mutant E333A (antibody)
- EC50 [1]: 0.98 µg/mL
- increase in binding to C1q [1]: 30%

Substance: C2B8 mutant E318A (antibody)
- CD20 binding (EC50), percentage of the wild type (% of wild type) [2]: 89
- CDC (% of wild type) [8]: 108
- decrease in binding to C1q compared to wild type C2B8 [1]: 30%

Substance: E27 anti-IgE antibody mutant P329A
- binding, percentage of the wild type (% of wild type) [3]: 104
- binding, percentage of the wild type (% of wild type) [6]: 85

Substance: C2B8 mutant K326M (antibody)
- fold increase in binding to C1q compared to wild type [7]: 2 fold
- EC50 [1]: 0.67 µg/mL

Substance: C2B8 mutant K320A (antibody)
- CD20 binding (EC50), percentage of the wild type (% of wild type) [2]: 102
- CDC (% of wild type) [8]: 108

Substance: C2B8 mutant K326D (antibody)
- fold increase in binding to C1q compared to wild type [7]: 2 fold
- EC50 [1]: 0.76 µg/mL

Substance: C2B8 mutant P331A (antibody)
- fold lower than wild type C2B8 in binding to C1q [9]: 60 fold
- CD20 binding (EC50), percentage of the wild type (% of wild type) [2]: 103

Substance: C2B8 mutant E333S (antibody)
- EC50 [1]: 0.81 µg/mL
- fold increase in binding to C1q compared to wild type [1]: 2 fold
